test: soluble on expression in E. coli; label from the status in PepcDB or PDB records

Sequence	soluble on expression in E. coli
MIKNPILRGFNPDPSICRADTDYYIATSTFEWFPGVQIHHSKDLVNWHLVAHPLNRTSLLDMKGNPNSGGIWAPDLSYHDGKFWLIYTDVKVTDGMWKDCHNYLTTCESVDGVWSDPITLNGSGFDASLFHDNDGKKYLVNMYWDQRTYNHNFYGIVLQEYSDKEKKLIGKAKIIYKGTDIKYTEGPHIYHIGDYYYLFTAEGGTTYEHSETVARSKNIDGPYEIDPEYPLLTSWHDPRNSLQKCGHASLVHTHTDEWYLAHLVGRPLPVGNQPVLEQRGYCPLGRETSIQRIEWVDNWPRVVGGKQGSVNVEAPKIPEVKWEKTYDEKDNFDSDKLNINFQSLRIPLTENIASLKAKKGNLRLYGKESLTSTFTQAFIARRWQSFKFDASTSVSFSPDTFQQAAGLTCYYNTENWSTIQVTWNEDKGRVIDIVCCDNFHFDMPLKSNVIPIPKDVEYIHLKVEVRVETYQYSYSFDGINWSKVPAIFESRKLSDDYVQGGGFFTGAFVGINCIDITGNNKPADFDYFCYKEL	soluble
MIKRGFPAVLDENTEILILGSLPSDESIRKQQYYGNPGNDFWRLVGHAIGENLQDMAYEKKLKTLKHNRIGLWDVFKAGSREGSQDSKIGDEEINDFSGLKEMVPKLRLICFNGRKAGEYEPLLRGMGYETKVLPSSSGANRRFSKNRESEWEAVFRHLEHHHHHH	soluble
MIKTFKSKALAELYETGSSSKTDKKLFKRIIVRLDRLNVAEKPEEMNLPGFNFHALIGFHPIRYTVHINGPWCITFEFDSCNAYRVDLEQYH	not soluble
MIKVVVRKRPLSELEKKKKDSDIITVKNNCTLYIDEPRYKVDMTKYIERHEFIVDKVFDDTVDNFTVYENTIKPLIIDLYENGCVCSCFAYGQTGSGKTYTMLGSQPYGQSDTPGIFQYAAGDIFTFLNIYDKDNTKGIFISFYEIYCGKLYDLLQKRKMVAALENGKKEVVVKDLKILRVLTKEELILKMIDGVLLRKIGVNSQNDESSRSHAILNIDLKDINKNTSLGKIAFIDLAGSERGADTVSQNKQTQTDGANINRSLLALKECIRAMDSDKNHIPFRDSELTKVLRDIFVGKSKSIMIANISPTISCCEQTLNTLRYSSRVKNKGNSKLEGKPIPNPLLGLDSSRTGHHHHHH	soluble
MILIIYAHPYPHHSHANKRMLEQAGTLENVEIRSLYHLYPDFNIDVAAEQEALSRASLIVWQHPMQWYSVPPLLKLWMDKVLTHGWAYGHGGTALHGKHLLWAVTTGGGENHFAIGSHPGFDVLSQPLQATALYCGLKWLSPFAMHCTFICDDDTLQAQARQYKQRLLAWQEVNHG	not soluble
MILQRLFRFSSVIRSAVSVHLRRNIGVTAVAFNKELDPIQKLFVDKIREYKSKRQTSGGPVDASSEYQQELERELFKLKQMFGNADMNTFPTFKFEDPKFEVIEKPQALEHHHHHH	not soluble
MIMKKEKTYSRAPLPFVGQKRMFVSEFKKILKHFDDKTIFVDLFGGSGLLSHITKRERPDAVVIYNDHDNYRERLENIDRTNTLLRDLRKIVGIYPRHQKITGKMREAFLERIRLEETTGFVDYLTLSTSLLFSGKYAQNMEELEGLYFYNKIRQSDYRCDGYLDGLEVVCYDYKELADTYGVFPGVVFLVDPPYMGTDISTYKMDWKLADYLDVLLVLKGH	not soluble
MINLKGITKSFQNGAESIQILHGIDVTLNQGEFTSIMGPSGSGKSTLMNIIGCLDKPTTGTYELAGQNISNMSKTELAHVRNKEIGFVFQNFMLLPRLSALQNVELPLIYAGVDKKERRERSLAALTKVGLADRATHLPNELSGGQKQRVAVARAIVNNPKFILADEPTGALDTKTSTQIMDLFYELNKQGSTIIMITHDREIGEAAARQIVIRDGNIVQDWRG	not soluble
MINRRYELFKDVSDADWNDWRWQVRNRIETVEELKKYIPLTKEEEEGVAQCVKSLRMAITPYYLSLIDPNDPNDPVRKQAIPTALELNKAAADLEDPLHEDTDSPVPGLTHRYPDRVLLLITDMCSMYCRHCTRRRFAGQSDDSMPMERIDKAIDYIRNTPQVRDVLLSGGDALLVSDETLEYIIAKLREIPHVEIVRIGSRTPVVLPQRITPELVNMLKKYHPVWLNTHFNHPNEITEESTRACQLLADAGVPLGNQSVLLRGVNDCVHVMKELVNKLVKIRVRPYYIYQCDLSLGLEHFRTPVSKGIEIIEGLRGHTSGYCVPTFVVDAPGGGGKTPVMPNYVISQSHDKVILRNFEGVITTYSEPINYTPGCNCDVCTGKKKVHKVGVAGLLNGEGMALEPVGLERNKRHVQE	soluble
MIPFDYERATDVDSAVATVTGDPRASFLAGGTNLVDHMKLGVARPHLLVDVSRLPLGDVVELPDGGLRIGAAVRNSDLAAHDVVRARYPMLSRALLSGASGQLRNLATTAGNLLQRTRCVYFQDVTTPCNKREPGTGCSAIGGYVRYHAILGASEHCVAVHPSDMAVAMTALDGVVVVRGADGERRIPLSEFYRLPGDRPDRDTVLAHGDLVTAVELPPPPSGNRSAYRKVRDRASFAFAVVSVAAELTIGDTSITSARVALGGVAHRPWRATLAEEVLVGSPPTEATYTEAAAAELAAAQPLPGNEFKVALTRRVLASVLRSLAEEARR	soluble
MIPKKSSFIVTYAFRIKPTSPQDSGSNRMIIVITPTYKRITRLADITRLANTLSQVENLHWIVIEDGESTIPNVQNILERSELLYTYVAHRTASGYPARGWYQRDMALKLIRTNPSQILGEHEGEAVIYFADDDNSYDLRLFEDYIRNVKKLGLWAVGLAGGAAVEAPNVVNKKVTSFNFKWKSKRRFAVDMAGFAINLDYILNSSAVFGTECKRGDGAPETCLLEDLGFDLNDIEPFGYEKEASEIYSSLYSMVFYLQKNNEILVWHTKTSYSGMKVKEAEKFGYFVEP	not soluble
MIPLCREHNKTCRVKVNYHWRVYNEDINKNAVLELSCQCQVLDQLRKTFVELGSSTIHSAADFEFSCITKDGPVVLSSGYEIYNNIRPELSFYHSQLPQLFLHVRILDVSVIAKLDDLGRTVNECKATMKSDKAWRVMKDTEIAEGQLSLQELLDKQQLEIKSLQKDISEMKLENQCRKKEDKNSFKNKEVHEASCDKCQDLIIGHRFKCAICYNYDLCETCEAAGVHAQHALIRLVSENTLFPEHLIVKNPEEVKDQNGQVQAIASSRDRAIQVPLRRLGITPQAIATKNNVSRYLNAQSDRNIIEDPWYAQHMSSRKPQTYERMHPKLKDTTDGKKVQKVSFRDRFYKKAESSLDKHEKQLRFDLSASRQEFIREKEKFRVEKETLMKQKEQIEEMMKQETINFETNRAFFSDRFEPIFNKVKDGKKSEDDTTRKVEFEVETAESNYPGSIFSDEDSLSDLAEILKDIEEYECSSESSDDQEKDDFDVVEEEAKQS	not soluble
MIPTATYRLQFRNGMTFDRAAALVPYLKNLGISHLYASPIFTATKASTHGYDVTDANEIEPSIGGREGFERLVAELKAQGLGLIIDIVPNHMASSLENAWWRDVLEYGKESRYARHFDIDWSRRLTLPFLGDTFDAVLENGEIAIKPDPATGKPAFAYYDNYYPLAPATWQGREAEILALTDKAAIADLHERQPWKLMSWRDAARSLSYRRFFEVTGLVGMRVEDKTVFDDTHRLILELVRTGAVDGLRIDHIDGLADPKAYLARLRQEVGPACYITVEKILAKGEQLPDDWPVSGTTGYEFIASLAEVLVDDEQIDNLRQAYETVKGAPVDMRAELRAAKLLMVDRNFEGEFTRLLALALSIASELQIAQEESVVRQALRELLIAFPVYRTYGTAEGLPPTDICLLHRIVERVKTLETPPQPEALTFLSRLLTGDVPASSQEEATQFRVRFQQLTGPLMAKSVEDTLFFRQNMGLALNEVGAEPVTHHFSIERFHHEMKTRQARQPDALSGTSTHDTKRGEDARARLYTLTEAPEQWSECLARWRQMNQTHVKFLNDGTAPKSADTWMLYQALTGVWPPVLQPQDETGLNALKTRFEAFVEKALREAKLRTDWVDSNEAYETAMLDYARYLLAPDNQTFLQDFYRSLQPFIRAGLVNSLTQTVIKLTAPGVPDIYQGSEALNFSLVDPDNRREPDFATLAQQLDQLTPGVFSREESWLNGQVNQYVTAALLRLRQQNHELFRFGDYIPLRAVGQRADKVIAYARVNHDDALIVVAPRLVFAECDGLLSQSHSGFWSGTDIIIPGQLNQHRYRNVLTQERLMPGERLSLASHQGGVLVLMSD	not soluble
MIQHLSSDTVVIGGGVVGLTIALTVARRHRSVILLDPEEPGSGASYGNAGTIADYAVLPVGTPDVLRQLPSLMFDRNSPLAIRHMALPSLAPWLARFLRQSLPAPARRNAQAIAALLGSATRSWEDLAVEVEGTALLNRRGCLYAYETPQAARAAETDMTFRRTLGVTVELLSAAEFAAMEPSLPPMAGAAYFPKAIFLSDPGRMVALIAEAARKAGVQIVKARATGLERRVDGVIVSGRALQIHGRRAVIAAGAHSRALALCAGDRVPLDTERGYHVEWDMAQPPLTRPTCPTARGFYLCPMAGRLRVAGTVELGGLTARPSPHRIARLVAGARAIFPHLPEPTRSWMGFRPSMPDSLPVIGPSAAGPEILHAYGHGHIGLTLAPITARIVADLLDAKTPELDIAPYLPTRFLEHHHHHH	not soluble
MIQLGGYKPRLSLHNSLFRALVSKQGGILNDQLKQAEFIFHNVVTTGLEVQKDIYSGLIWLHSCQDEVDIGRINSLREEMKKAGFQESKEVVVSLLRAYAKEGGVEEVERTWLELLDLDCGIPSQAFVYKIEAYSKVGDFAKAMEIFREMEKHIGGATMSGYHKIIEVLCKVQQVELVETLMKEFEESGKKPLLPSFIEIAKMYFDLGLHEKLEMAFVQCLEKCQPSQPIYNIYLDSLTKIGNLEKAGDVFNEMKNNGTINVSARSCNSLLKGYLDCGKQVQAERIYDLMRMKKYEIEPPLMEKLDYILSLKKKEVKKRPFSMKLSKDQREVLVGLLLGGLQIESDKEKKSHMIKFEFRENSQAHLVLKQNIHDQFREWLHPLSNFQEDIIPFEFYSVPHSYFGFYAEHYWPKGQPEIPKLIHRWLSPHSLAYWYMYSGVKTSSGDIILRLKGSLEGVEKVVKALQAKSMECRVKKKGKVFWIGLQGTNSALFWKLIEPHVLENLKEHLKPASESLDNVKEAEEQSINFKSNSDHSDDCVNSEAHFY	not soluble
MIQLKNVGITLSGKGYERFSLENINLEVNGEKVIILGPNGSGKTTLLRAISGLLPYSGNIFINGMEVRKIRNYIRYSTNLPEAYEIGVTVNDIVYLYEELKGLDRDLFLEMLKALKLGEEILRRKLYKLSAGQSVLVRTSLALASQPEIVGLDEPFENVDAARRHVISRYIKEYGKEGILVTHELDMLNLYKEYKAYFLVGNRLQGPISVSELLESSIVEGERNDALLVLDIMDKKVSIVKGDLGMKFGALGSLNRIYGIIGA	soluble
MIQVYKYDENFMFVEPLVVTEIDEKGDYIFPDNCTSVPLPDSPSYYLPRFDLSKQVWIETASQEYIDSLSPPPEEPSDVELLGQSLAEARILILKQNRIILNLQNEVKNLKDGTTALEHHHHHH	soluble
MIRITQIKISIDEPVSKVKSLVLKKLRLQESDLLDYRIYKESIDARHRGEIDFIYTVDIKLKDEARILSKKIKNVSLAPELDYVNPVIGSKKMLHRPVVIGFGPAGMFAALLLAQNGYRPIVLERGQAVDERVKSIDKFWLEGKLNPKSNVQFGEGGAGTFSDGKLTSRVRDLRGRKVLEEFVQAGAPEDILYKAHPHVGTDLLRDIVKNIRKQIIELGGEVHFDAQVEEFLIEDEELQAVKLADGNIIKTNQAILAIGHSARDTFSELYDKGVTITAKPFAVGVRIEHPQSLINKAQYKEFADHPRLGAAEYRLTYKASSGRGVYTFCMCPGGLVVPAASEEGGLVTNGMSEHARDQKNANSGLLVQVFPEDFPTDHPLAGVEFQKELEHKAFELGGSNYQAPAQLVGDFLDGKASKAMGTVEPSYALGVKPTNLESLFPDYVTQSMREAIVGLDKKMHGFALSDAVMTGVESRSSSPVRINRDEENYQSVSTKGIYPSGEGAGFAGGIVSAGIDGLKCAESMIAEFAKLLMEDLEHHHHHH	soluble

Reference: the DeepSol protein solubility set
